Assay results: patent publication US20060142193A1, “Selective inhibition of rock1 in cardiac therapy” (BAYLOR COLLEGE OF MEDICINE, priority 2004, published 2006)

T1: SRF (Homo sapiens, UniProt P11831)
T1 sequence (P11831 1-508): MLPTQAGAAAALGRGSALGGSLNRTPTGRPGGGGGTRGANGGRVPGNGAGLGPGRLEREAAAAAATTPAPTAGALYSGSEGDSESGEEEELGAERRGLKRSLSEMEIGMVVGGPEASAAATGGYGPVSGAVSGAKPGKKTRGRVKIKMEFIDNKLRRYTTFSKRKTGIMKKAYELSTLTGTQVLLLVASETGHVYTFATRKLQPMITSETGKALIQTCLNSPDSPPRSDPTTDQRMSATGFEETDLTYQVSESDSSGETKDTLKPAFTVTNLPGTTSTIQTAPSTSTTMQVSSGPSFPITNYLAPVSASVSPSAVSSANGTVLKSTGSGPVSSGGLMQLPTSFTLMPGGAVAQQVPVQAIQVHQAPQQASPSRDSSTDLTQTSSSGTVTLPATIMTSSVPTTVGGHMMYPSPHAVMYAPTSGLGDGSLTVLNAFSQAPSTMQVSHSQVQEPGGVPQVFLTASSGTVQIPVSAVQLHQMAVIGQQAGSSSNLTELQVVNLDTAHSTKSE

B1: ROCK1Δ1: C-terminally truncated mutant (1-1080) of ROCK1, constitutively active, mimics caspase 3 cleaved fragment (protein, UniProt Q13464 1-1080, looked up, fragment)
chain: MSTGDSFETRFEKMDNLLRDPKSEVNSDCLLDGLDALVYDLDFPALRKNKNIDNFLSRYKDTINKIRDLRMKAEDYEVVKVIGRGAFGEVQLVRHKSTRKVYAMKLLSKFEMIKRSDSAFFWEERDIMAFANSPWVVQLFYAFQDDRYLYMVMEYMPGGDLVNLMSNYDVPEKWARFYTAEVVLALDAIHSMGFIHRDVKPDNMLLDKSGHLKLADFGTCMKMNKEGMVRCDTAVGTPDYISPEVLKSQGGDGYYGRECDWWSVGVFLYEMLVGDTPFYADSLVGTYSKIMNHKNSLTFPDDNDISKEAKNLICAFLTDREVRLGRNGVEEIKRHLFFKNDQWAWETLRDTVAPVVPDLSSDIDTSNFDDLEEDKGEEETFPIPKAFVGNQLPFVGFTYYSNRRYLSSANPNDNRTSSNADKSLQESLQKTIYKLEEQLHNEMQLKDEMEQKCRTSNIKLDKIMKELDEEGNQRRNLESTVSQIEKEKMLLQHRINEYQRKAEQENEKRRNVENEVSTLKDQLEDLKKVSQNSQLANEKLSQLQKQLEEANDLLRTESDTAVRLRKSHTEMSKSISQLESLNRELQERNRILENSKSQTDKDYYQLQAILEAERRDRGHDSEMIGDLQARITSLQEEVKHLKHNLEKVEGERKEAQDMLNHSEKEKNNLEIDLNYKLKSLQQRLEQEVNEHKVTKARLTDKHQSIEEAKSVAMCEMEKKLKEEREAREKAENRVVQIEKQCSMLDVDLKQSQQKLEHLTGNKERMEDEVKNLTLQLEQESNKRLLLQNELKTQAFEADNLKGLEKQMKQEINTLLEAKRLLEFELAQLTKQYRGNEGQMRELQDQLEAEQYFSTLYKTQVKELKEEIEEKNRENLKKIQELQNEKETLATQLDLAETKAESEQLARGLLEEQYFELTQESKKAASRNRQEITDKDHTVSRLEEANSMLTKDIEILRRENEELTEKMKKAEEEYKLEKEEEISNLKAAFEKNINTERTLKTQAVNKLAEIMNRKDFKIDRKKANTQDLRKKEKENRKLQLELNQEREKFNQMVVKHQKELNDMQAQLVEECAHRNELQMQL
B2: full length ROCK1: full length human ROCK-1 expressed from pCAG-ROCK-1 (protein, UniProt Q13464 1-1354, looked up)
chain: MSTGDSFETRFEKMDNLLRDPKSEVNSDCLLDGLDALVYDLDFPALRKNKNIDNFLSRYKDTINKIRDLRMKAEDYEVVKVIGRGAFGEVQLVRHKSTRKVYAMKLLSKFEMIKRSDSAFFWEERDIMAFANSPWVVQLFYAFQDDRYLYMVMEYMPGGDLVNLMSNYDVPEKWARFYTAEVVLALDAIHSMGFIHRDVKPDNMLLDKSGHLKLADFGTCMKMNKEGMVRCDTAVGTPDYISPEVLKSQGGDGYYGRECDWWSVGVFLYEMLVGDTPFYADSLVGTYSKIMNHKNSLTFPDDNDISKEAKNLICAFLTDREVRLGRNGVEEIKRHLFFKNDQWAWETLRDTVAPVVPDLSSDIDTSNFDDLEEDKGEEETFPIPKAFVGNQLPFVGFTYYSNRRYLSSANPNDNRTSSNADKSLQESLQKTIYKLEEQLHNEMQLKDEMEQKCRTSNIKLDKIMKELDEEGNQRRNLESTVSQIEKEKMLLQHRINEYQRKAEQENEKRRNVENEVSTLKDQLEDLKKVSQNSQLANEKLSQLQKQLEEANDLLRTESDTAVRLRKSHTEMSKSISQLESLNRELQERNRILENSKSQTDKDYYQLQAILEAERRDRGHDSEMIGDLQARITSLQEEVKHLKHNLEKVEGERKEAQDMLNHSEKEKNNLEIDLNYKLKSLQQRLEQEVNEHKVTKARLTDKHQSIEEAKSVAMCEMEKKLKEEREAREKAENRVVQIEKQCSMLDVDLKQSQQKLEHLTGNKERMEDEVKNLTLQLEQESNKRLLLQNELKTQAFEADNLKGLEKQMKQEINTLLEAKRLLEFELAQLTKQYRGNEGQMRELQDQLEAEQYFSTLYKTQVKELKEEIEEKNRENLKKIQELQNEKETLATQLDLAETKAESEQLARGLLEEQYFELTQESKKAASRNRQEITDKDHTVSRLEEANSMLTKDIEILRRENEELTEKMKKAEEEYKLEKEEEISNLKAAFEKNINTERTLKTQAVNKLAEIMNRKDFKIDRKKANTQDLRKKEKENRKLQLELNQEREKFNQMVVKHQKELNDMQAQLVEECAHRNELQMQLASKESDIEQLRAKLLDLSDSTSVASFPSADETDGNLPESRIEGWLSVPNRGNIKRYGWKKQYVVVSSKKILFYNDEQDKEQSNPSMVLDIDKLFHVRPVTQGDVYRAETEEIPKIFQILYANEGECRKDVEMEPVQQAEKTNFQNHKGHEFIPTLYHFPANCDACAKPLWHVFKPPPALECRRCHVKCHRDHLDKKEDLICPCKVSYDVTSARDMLLLACSQDEQKKWVTHLVKKIPKNPPSGFVRASPRTLSTRSTANQSFRKVVKNTSGKTS
modifications: full-length

What was measured:
PTEN = PTEN activity by Malachite green assay in human HEK cells; format: cell-based; settings: transfected HEK cells
Source text: (§1) To further characterize the mechanism involved in this caspase activation, the present inventors transfected ROCKΔ1 in human HEK cells. […] Since AKT is activated by PI3K, PTEN acts as the upstream PI3K inhibitor. In specific embodiments of the invention, the repression of AKT activity caused by ROCKΔ1 may contribute to its pro-apoptotic effect through the increase in PTEN activity. […] Meanwhile, the decreased level of pAKT by ROCKΔ1 was reverted by blocking PTEN expression. Furthermore, the pAKT level was higher than the control level (FIG. 22D), which further supported this specific embodiment.
Western blot and Malachite green assay. Anti-ROCK-1, caspase 3, PARP, His, α-actin antibodies (Santa Cruz), anti-phospho-AKTser473 (Cell Signaling) and anti-RTEN (Upstate) were purchased. Protein samples for Western blot were prepared and separated as described earlier (Chang et al., 2000). Even loadings were confirmed by Ponceau staining and antibody probed for actin. PTEN activity was evaluated by Malachite green assay (Upstate). 500 μg of cell lysate protein was used for immunoprecipitation.

phospho-AKT (pAKT) = test: phospho-AKT level in human HEK cells (Western blot); format: cell-based; settings: transfected HEK cells
Source text: as §1
Cell culture, plasmid constructs, and recombinant adenoviruses. Neonatal rat cardiomyocytes were isolated and cultured in DMEM/F12 medium (1:1) with 10% horse serum (DF10); cells were ready for transfection or virus infection 40 hours after plating. For immunostaining, cells were cultured on pre-coated (with 0.2% gelatin) coverslips. Transfections were performed using LipofectAMINE 2000 (Invitrogen) with Opti-MEM I Reduced Serum Medium (Invitrogen). After 6 hr or O/N, cells were cultured in DF10. With human embryonic kidney (HEK) A293T cells, cells were cultured in DMEM with 10% fetal bovine serum. […]
Western blot and Malachite green assay. […] PTEN activity was evaluated by Malachite green assay (Upstate). […]

SRF = target: T1, SRF; test: SRF cleavage by active caspase 3 in vitro in presence or absence of ROCK1Δ1; format: biochemical; settings: in the presence of active ROCK1
Method: Equal amounts of SRF were incubated with active caspase 3 in the presence or absence of ROCK1Δ1.

caspase 3 = test: Caspase 3 activation in transfected neonatal rat cardiomyocytes (pCaspase3-sensor); format: cell-based; settings: overexpression vs control plasmid
Source text: To determine whether ROCK1 activation by caspase 3 cleavage is able to activate the caspase cascade, thereby constituting an amplification loop of apoptotic responses, the present inventors transfected rat neonatal cardiomyocytes with a plasmid encoding a C-terminally truncated mutant (1-1080) of ROCK1 (ROCK1Δ1) that corresponds closely to the fragment generated by caspase 3 cleavage (1-1113), and a second plasmid, pCaspase3-sensor encoding a fluorescent (EYFP) fusion protein (FIG. 9A). […] Caspase 3 activity in the transfected myocytes was monitored by counting the number of transfected cells with nuclear localization of fluorescent fusion protein.
Apoptosis assay and immunofluorescence analysis. Apoptosis was evaluated using caspase 3 activity and poly(ADP-ribose) polymerase (PARP) cleavage with Western blot in human and mouse heart tissues. With regard to apoptotic cultured neonatal cardiomyocytes, a caspase 3 sensor (BD Biosciences) was introduced to detect the onset of caspase 3 activity (FIG. 9). The vector encodes EYFP (enhanced yellow fluorescent protein) fused with NES (nuclear export signal) and NLS (nuclear localization signal). A caspase 3 specific cleavage site is located between EYFP and NES. […] The quantification was performed by counting the number of transfected cells with the nuclear localization of fluorescent fusion protein over the total transfected cells. […]

Molecule | PTEN activity (PTEN) | phospho-AKT (pAKT) level (phospho-AKT (pAKT)) | full-length SRF level after incubation with active caspase 3 (SRF) | caspase 3 activation (nuclear localization of EYFP fusion protein) (caspase 3)
B1 | increased | decreased | markedly decreased | induced significant caspase 3 activation
B2 | not found | – | – | no significant effect
